Measured values reported in PMC5352143.
Values joined by “and” are separate entries in the source; they are usually repeats but may differ in a detail not shown here. Equal entries are not always repeated. Where two headings read alike, the source gives them in different places.

Tests used:
[1] = target: transferrin (Homo sapiens) (UniProt P02787); conditions: cited from earlier work
[2] = target: MBP-LbpB (lactoferrin binding protein B, N. meningitidis MC58, without amino acids 1-15) (Neisseria meningitidis strain MC58); test: cross-linking; XL-MS: LbpB (MBP fusion or TEV-cleaved) and hLf equimolar in 50 mM Tris-HCl, 50 mM NaCl, pH 7.4, 4 h RT, DSS 30 min, bands cut from SDS-PAGE, LC-MS/MS
[3] = target: LbpB with the anionic loops removed (LbpB-lgsm), N-terminal biotin acceptor peptide, fused to MBP (BLI construct) (Neisseria meningitidis strain MC58); test: BLI; Octet RED 96; biotinylated MBP-LbpB constructs loaded from crude E. coli extracts on streptavidin sensors; holo-hLf 10-800 nM in 1 X PBS pH 7.4, 0.002% Tween-20, 0.1 mg/mL BSA; steady-state fit, apparent KD
[4] = target: intact LbpB with N-terminal biotin acceptor peptide, fused to MBP (BLI construct) (Neisseria meningitidis strain MC58); test: as above
[5] = target: LbpB N-terminal lobe with N-terminal biotin acceptor peptide, fused to MBP (BLI construct) (Neisseria meningitidis strain MC58); test: as above
[6] = target: MBP-LbpB (lactoferrin binding protein B, N. meningitidis MC58, without amino acids 1-15) (Neisseria meningitidis strain MC58); test: cross-linking; XL-MS: LbpB (MBP fusion or TEV-cleaved) and hLf equimolar in 50 mM Tris-HCl, 50 mM NaCl, pH 7.4, 4 h RT, DSS 30 min, bands cut from SDS-PAGE, LC-MS/MS; remark: listed apart in the source
[7] = target: LbpB (N. meningitidis MC58, without amino acids 1-15) after TEV cleavage of MBP-LbpB (Neisseria meningitidis strain MC58); test: as above

transferrin (Homo sapiens), sequence (P02787 20-698): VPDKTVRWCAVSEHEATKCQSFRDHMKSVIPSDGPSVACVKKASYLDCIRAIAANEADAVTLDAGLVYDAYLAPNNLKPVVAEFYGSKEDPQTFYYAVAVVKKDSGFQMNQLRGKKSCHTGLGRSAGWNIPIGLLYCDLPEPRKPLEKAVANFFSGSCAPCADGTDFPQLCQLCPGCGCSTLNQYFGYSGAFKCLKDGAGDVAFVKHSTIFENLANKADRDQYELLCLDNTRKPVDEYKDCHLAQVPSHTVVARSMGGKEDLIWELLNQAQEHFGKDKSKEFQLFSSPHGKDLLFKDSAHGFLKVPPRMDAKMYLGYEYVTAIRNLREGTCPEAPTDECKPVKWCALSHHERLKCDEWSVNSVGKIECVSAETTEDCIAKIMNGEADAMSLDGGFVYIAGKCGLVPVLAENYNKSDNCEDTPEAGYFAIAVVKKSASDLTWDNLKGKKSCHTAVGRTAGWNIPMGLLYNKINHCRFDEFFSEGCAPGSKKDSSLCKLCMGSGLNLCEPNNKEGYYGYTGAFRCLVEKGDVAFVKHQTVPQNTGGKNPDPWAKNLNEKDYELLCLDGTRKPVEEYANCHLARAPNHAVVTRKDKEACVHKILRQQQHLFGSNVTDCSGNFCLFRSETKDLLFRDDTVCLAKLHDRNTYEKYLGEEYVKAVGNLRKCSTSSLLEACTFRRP

Substance | Kd [1] [nM] | stoichiometry N [2] | Kd [3] [nM] | Kd [4] [nM] | Kd [5] [nM] | stoichiometry N [6] | stoichiometry N [7]
TbpB (from UniProt Q09057) | 50 |  |  |  |  |  | 
holo human lactoferrin (iron-loaded hLf) (ligand) |  | 2 hLf:LbpB | 140 | 72.8 | 126 | 1 hLf:LbpB | 1 hLf:LbpB and 2 hLf:LbpB
